Where a chain is given by its changes, count along the chain named. In names and notes the source's numbering stands. Blank lines part the entries; values can stand above or below the molecule they belong to.
How the values were obtained:
[1] = molecular target: murine B7-H3 ectodomain (mB7H3), wild type (mouse) (UniProt Q8VE98); test: SEC
[2] = molecular target: the molecule itself; test: SEC

kon [1]: 0.000161 M⁻¹ s⁻¹ | stoichiometry N [1]: 2
Molecule: murine B7-H3 ectodomain (mB7H3), wild type (from UniProt Q8VE98 34-247) (domain or fragment)

B1: murine B7-H3 ectodomain (mB7H3) I126T (domain or fragment, mouse, UniProt Q8VE98 34-247, looked up)
chain: SEDPVVALVDTDATLRCSFSPEPGFSLAQLNLIWQLTDTKQLVHSFTEGRDQGSAYSNRTALFPDLLVQGNASLRLQRVRVTDEGSYTCFVSTQDFDSAAVSLQVAAPYSKPSMTLEPNKDLRPGNMVTITCSSYQGYPEAEVFWKDGQGVPLTGNVTTSQMANERGLFDVHSVLRVVLGANGTYSCLVRNPVLQQDAHGSVTITGQPLTFPPE
kon [2]: 4.1e-05 M⁻¹ s⁻¹

B2: murine B7-H3 ectodomain (mB7H3) F129A (domain or fragment, mouse, UniProt Q8VE98 34-247, looked up)
chain: B1 chain with T93I, F96A
kon [2]: 0.000164 M⁻¹ s⁻¹

B3: murine B7-H3 ectodomain (mB7H3) FG-loop chimera (I126Y/Q127G/D128G/F129A) (domain or fragment, mouse, UniProt Q8VE98 34-247, looked up)
chain: B1 chain with T93Y, Q94G, D95G, F96A
kon [2]: 8.3e-06 M⁻¹ s⁻¹

Source: PMC3998375 (Structure (London, England : 1993), 2013)
